Paper PMC7112767

Molecular target: IL-1β mutant with pBpa at position 63 (Homo sapiens)
Assay: cross-linking

monoclonal phage displaying the scFv of canakinumab
UV output (CFU): 6400 CFU
UV/non-UV output ratio: 3.8
